Measured values: the supplement of paper PMC10724198
± gives the standard deviation of the averaged measurements.

Legend:
Saccharomyces cerevisiae [1] = experiment: protein stability index of tFT-peptide fusion (C-terminal peptide) (PSI (0-1 scale)); higher = more stable (slower turnover); conditions: genetic background: wild type; temperature: 30 C
Saccharomyces cerevisiae [2] = experiment: as above
Protocol: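 MPS profiling in S. cerevisiae of the tFT-X12 degron library: putative degron peptides plus stable controls, 12 aa, fused to the C-terminus of a sfGFP-mCherry timer. Cells are FACS-sorted into 8 mCherry/sfGFP bins and deep-sequenced. PSI runs from 0 (unstable) to 1 (stable). Backgrounds are wild type, das1Δ and doa10Δ at 30 °C, and wild type, das1Δ, cdc34-1 and cdc53-1 at 37 °C; 2-3 technical replicates each.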

[3] = genetic background: cdc34-1, temperature: 37 C
[4] = genetic background: cdc53-1, temperature: 37 C
[5] = genetic background: das1 deletion, temperature: 30 C
[6] = genetic background: das1 deletion, temperature: 37 C
[7] = genetic background: doa10 deletion, temperature: 30 C
[8] = genetic background: wild type, temperature: 30 C
[9] = genetic background: wild type, temperature: 37 C
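Note: PSI is a weighted mean of sequencing reads over stability bins, variants kept only with over 10 reads, mCherry proximal and sfGFP distal, peptide attached via GGGS linker.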

Row | Sequence | protein stability index (Saccharomyces cerevisiae [1]) | protein stability index (Saccharomyces cerevisiae [2]; [3]) | protein stability index (Saccharomyces cerevisiae [2]; [4]) | protein stability index (Saccharomyces cerevisiae [2]; [5]) | protein stability index (Saccharomyces cerevisiae [2]; [6]) | protein stability index (Saccharomyces cerevisiae [2]; [7]) | protein stability index (Saccharomyces cerevisiae [2]; [8]) | protein stability index (Saccharomyces cerevisiae [2]; [9])
1 | DWTVSYLWVTAL | 0.331 ± 0.015 | 0.534 ± 0.042 | 0.592 ± 0.019 | 0.469 ± 0.025 | 0.599 ± 0.006 | 0.185 ± 0.0044 | 0.208 ± 0.0091 | 0.385 ± 0.02
2 | ECCKRFCCRFVA | 0.338 ± 0.044 | 0.627 ± 0.038 | 0.6982 ± 0.0042 | 0.644 ± 0.0065 | 0.73 ± 0.018 | 0.231 ± 0.0082 | 0.256 ± 0.021 | 0.4002 ± 0.0022
3 | EERKIFLKVVKV | 0.463 ± 0.0094 | 0.545 ± 0.036 | 0.496 ± 0.016 | 0.398 ± 0.025 | 0.5748 ± 0.0007 | 0.218 ± 0.021 | 0.305 ± 0.027 | 0.4656 ± 0.0028
4 | EGGLGDRLLGVG | 0.47 ± 0.015 | 0.526 ± 0.035 | 0.577 ± 0.0092 | 0.501 ± 0.0078 | 0.573 ± 0.021 | 0.5161 ± 0.0024 | 0.518 ± 0.016 | 0.547 ± 0.0066
5 | EMISRNVFTYLS | 0.473 ± 0.03 | 0.684 ± 0.037 | 0.755 ± 0.012 | 0.619 ± 0.034 | 0.773 ± 0.023 | 0.394 ± 0.034 | 0.42 ± 0.023 | 0.6266 ± 0.0049
6 | EMPRLSKAIRVT | 0.44 ± 0.029 | 0.5407 ± 0.00036 | 0.5702 ± 0.0053 | 0.371 ± 0.026 | 0.603 ± 0.011 | 0.279 ± 0.0047 | 0.314 ± 0.028 | 0.4961 ± 0.0028
7 | EVGTMALISCSV | 0.428 ± 0.034 | 0.3854 ± 0.001 | 0.356 ± 0.084 | 0.319 ± 0.05 | 0.458 ± 0.022 | 0.252 ± 0.019 | 0.288 ± 0.034 | 0.427 ± 0.039
8 | EWSRVVRWNWDG | 0.254 ± 0.027 | 0.528 ± 0.046 | 0.69857 ± 0.00044 | 0.637 ± 0.011 | 0.707 ± 0.0084 | 0.121 ± 0.0082 | 0.148 ± 0.014 | 0.266 ± 0.015
9 | FALVSLSFALVE | 0.379 ± 0.034 | 0.4203 ± 0.00048 | 0.457 ± 0.019 | 0.306 ± 0.025 | 0.518 ± 0.0066 | 0.28 ± 0.0036 | 0.292 ± 0.036 | 0.472 ± 0.02
10 | FAVHHLRYILLV | 0.106 ± 0.016 | 0.227 ± 0.029 | 0.325 ± 0.019 | 0.316 ± 0.024 | 0.436 ± 0.0073 | 0.0929 ± 0.009 | 0.0847 ± 0.024 | 0.129 ± 0.016
11 | FCCSVFCFLCLY | 0.504 ± 0.049 | 0.562 ± 0.044 | 0.548 ± 0.02 | 0.505 ± 0.027 | 0.572 ± 0.0057 | 0.5442 ± 0.001 | 0.492 ± 0.0071 | 0.518 ± 0.019
12 | FCGLLGVCLVMG | 0.326 ± 0.032 | 0.208 ± 0.042 | 0.298 ± 0.006 | 0.243 ± 0.032 | 0.389 ± 0.013 | 0.185 ± 0.016 | 0.221 ± 0.03 | 0.354 ± 0.011
13 | FCHFSSLVSVSL | 0.577 ± 0.18 | 0.614 ± 0.011 | 0.6089 ± 0.0042 | 0.498 ± 0.024 | 0.6377 ± 0.0016 | 0.494 ± 0.021 | 0.496 ± 0.018 | 0.611 ± 0.025
14 | FCLLRYPFVGVL | 0.415 ± 0.013 | 0.625 ± 0.047 | 0.683 ± 0.025 | 0.554 ± 0.022 | 0.677 ± 0.025 | 0.272 ± 0.0032 | 0.318 ± 0.0089 | 0.514 ± 0.0069
15 | FCSNLLSMVIAV | 0.432 ± 0.014 | 0.344 ± 0.0055 | 0.382 ± 0.014 | 0.32 ± 0.032 | 0.4315 ± 0.0038 | 0.265 ± 0.012 | 0.3 ± 0.012 | 0.438 ± 0.029
16 | FCVGVLFSCLVF | 0.394 ± 0.019 | 0.338 ± 0.041 | 0.412 ± 0.032 | 0.313 ± 0.021 | 0.4295 ± 0.0031 | 0.286 ± 0.0042 | 0.301 ± 0.019 | 0.43 ± 0.023
17 | FCVGVVIQLSGV | 0.415 ± 0.0067 | 0.435 ± 0.053 | 0.491 ± 0.034 | 0.311 ± 0.035 | 0.499 ± 0.0053 | 0.296 ± 0.0032 | 0.326 ± 0.021 | 0.473 ± 0.014
18 | FCVLLFYCFFFF | 0.356 ± 0.03 | 0.322 ± 0.011 | 0.322 ± 0.099 | 0.276 ± 0.039 | 0.38 ± 0.0096 | 0.314 ± 0.012 | 0.273 ± 0.032 | 0.335 ± 0.041
19 | FERKVHSRWLFF | 0.23 ± 0.038 | 0.56888 ± 0.00051 | 0.745 ± 0.022 | 0.658 ± 0.011 | 0.7407 ± 0.00086 | 0.0981 ± 0.019 | 0.15 ± 0.016 | 0.437 ± 0.018
